The text below walks through data of patent US20220331363A1.

The target of this assay is human Burkitt's lymphoma cell Daudi. The assay can be described thus: flow cytometry (FACS) on Daudi cells, which Example 3 says do not express BCMA. (Flow cytometry measures light scatter and fluorescence of single cells or particles in a stream.)

Broadly, the EC50 is the concentration that produces a half-maximal response. Higher therefore signals a need for much substance. As to “murine anti-BCMA antibody C11D5.3 (scFv), reference antibody”, the EC50 was found to be 58.2 µg/mL.
